Article PMC5493658, “Post-secretional activation of Protease IV by quorum sensing in Pseudomonas aeruginosa” (Scientific Reports, 2017)

Target: T1, P-PIV: His-tagged protease IV (PIV) purified from PAO-T7 (Pseudomonas aeruginosa, UniProt Q9HWK6 212-462)
T1 construct: Protease IV (PIV), lysyl-endopeptidase encoded by piv, Pseudomonas aeruginosa; 26 kDa mature PIV left after removal of the signal peptide and the propeptide (residues 1-211 of the 48 kDa prepro-PIV); because the N-terminus is processed twice during secretion it is probably C-terminal (surmise); also called His-tagged active PIV; mature PIV; source: P. aeruginosa PAO-T7 harboring pQF21c-PIV, …
T1 sequence: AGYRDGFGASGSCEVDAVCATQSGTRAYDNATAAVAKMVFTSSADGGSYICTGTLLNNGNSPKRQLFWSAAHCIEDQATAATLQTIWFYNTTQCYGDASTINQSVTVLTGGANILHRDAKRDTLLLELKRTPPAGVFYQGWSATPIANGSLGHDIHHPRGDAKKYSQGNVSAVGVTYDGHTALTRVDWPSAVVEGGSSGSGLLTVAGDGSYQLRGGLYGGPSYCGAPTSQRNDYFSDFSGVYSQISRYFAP
Experiment: pull-down; 1 ug purified propeptide mixed with 1 ug His-tagged P-PIV in 25 ul, room temperature 10 min; loaded on Ni-NTA agarose column, washed twice with 5 mM imidazole, eluted with 200 mM imidazole; SDS-PAGE
Conditions: both partners purified

B1: propeptide of PIV purified from E. coli (domain or fragment)
chain: APGASEMAGDVAVLQASPASTGHARFANPNAAISAAGIHFAAPPARRVARAAPLAPKPGTPLQVGVGLKTATPEIDLTTLEWIDTPDGRHTARFPISAAGAASLRAAIRLETHSGSLPDDVLLHFAGAGKEIFEASGKDLSVNRPYWSPVIEGDTLTVELVLPANLQPGDLRLSVPQVSYFADSLYK
notes: Propeptide of protease IV (PIV), Pseudomonas aeruginosa; expressed as residues 1-211 of prepro-PIV (signal peptide and propeptide); also called purified propeptide; PP; source: E. coli BL21 (DE3) harboring pET16b-pro, purified (Ni-NTA, Q sepharose, size exclusion chromatography); not shown: His tag, N-terminal, cleaved
binding result: binds
